{"source": "the nanobody polyreactivity screen of Harvey et al. (2022)"}
{"assay": "yeast display, Sf9 membrane polyspecificity reagent, FACS + sequencing; frameworks hold sequencing errors", "outline": "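Nanobodies from a synthetic yeast display library (Saccharomyces cerevisiae BJ5465), induced 36–48 hours with galactose, were stained 1 hour at 4 °C with 10% biotinylated, detergent-solubilized Sf9 membrane reagent, enriched on streptavidin microbeads, then FACS-sorted. Anti-HA (expression) and streptavidin (reagent binding) fluorescence set low and high (top ~1%) gates. Polyreactivity labels come from the gate of origin. Genes were colony-PCR amplified, MiSeq 2 × 250 sequenced and filtered by CDR length.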"}
{"sequence": "QVQLVESGGGLVQAGGSLRLSCAASGRIFAFNAMGWYRQAPGKERELVADITSSGVNTYYADSVKGRFTISRDNAKNTVYLQMNSLKPEDTAVYYCAARSYLRWWVGMEYCGQGTQVTVSS", "polyreactivity (PSR sort gate)": "low polyreactivity"}
{"sequence": "QVQLVESGGGLVQAGGSLRLSCAASGRIFAFYAMGGYRQAPGKERELVAAITSGGSTKYADSVKGRFTISRDNAKNTVYLHMKSLKPEDTAVYYSAAQYRYQRYSDAMEYWGQGTQVTVSS", "polyreactivity (PSR sort gate)": "high polyreactivity"}
{"sequence": "QVQLVESGGGLVQAGGSLRLSCAASGRIFAGYAMGWDRQAPGKERELVATISSGGSTYYADSVKGRFTISRDNAKNTVYLQMNSLKPEDTAVYYCAAEYGTRQYSSYYKLFNYWGQGTQVTVSS", "polyreactivity (PSR sort gate)": "low polyreactivity"}
{"sequence": "QVQLVESGGGLVQAGGSLRLSCAASGRIFAGYAMGWYRQAPGKERELLATISSGGSTYFAHSVKGRFTISRDNAKNTVYLQMNSLKPEDTAVYYCSAEYGTRQYSCYYKLFNYWGQGTQVTVSS", "polyreactivity (PSR sort gate)": "low polyreactivity"}
{"sequence": "QVQLVESGGGLVQAGGSLRLSCAASGRIFAGYAMGWYRQAPGKERELVAAISDGGTTNYADSVKGRFTISRDNAKNTVYLQMNSLKPEDTAVYYCAKVAAESYRYGYWGQGTQVTVSS", "polyreactivity (PSR sort gate)": "low polyreactivity"}
{"sequence": "QVQLVESGGGLVQAGGSLRLSCAASGRIFAGYAMGWYRQAPGKERELVAGISNRGGSTYYADSVKGRFTISRDNAKKTVYLQMNRLKPEDTAVYYCAVRRRSLGGYWGQGTQVTVSS", "polyreactivity (PSR sort gate)": "high polyreactivity"}
{"sequence": "QVQLVESGGGLVQAGGSLRLSCAASGRIFAGYAMGWYRQAPGKERELVARISRGDDSTYYADSVKGRFTISRDNAKNTVYLQMNSLKPEDTAFYFCAADYPDVVYLEYDYWGQGTQVTVSS", "polyreactivity (PSR sort gate)": "low polyreactivity"}
{"sequence": "QVQLVESGGGLVQAGGSLRLSCAASGRIFAGYAMGWYRQAPGKERELVASIRSSGSTYYADSVKGRFTISRDNAKNTVYLQMNSLKPEDTAVYYCNAVPRRRRYSRLGYWGQGTQVTVSS", "polyreactivity (PSR sort gate)": "high polyreactivity"}
{"sequence": "QVQLVESGGGLVQAGGSLRLSCAASGRIFAGYAMGWYRQAPGKERELVATITYRGGNTYYADSVKGRFTISRDNAKNTVYLQMNSLKPEDTAVYYCAKGPYRYLYRAYPGGYWGQGTQVTVSS", "polyreactivity (PSR sort gate)": "high polyreactivity"}
{"sequence": "QVQLVESGGGLVQAGGSLRLSCAASGRIFAGYTMGWYRQAPGKERELVAAISGSGGRTYYADSVKGRFTISRDIAKNTVYLQMNSLKPEDTAVYYCAAYRSRTYGYWGQGTQVTVSS", "polyreactivity (PSR sort gate)": "high polyreactivity"}
{"sequence": "QVQLVESGGGLVQAGGSLRLSCAASGRIFAHNAMGWYRQAPGKERELVAAISSSDGSTYYADSVKGRFTISRDNAKNTVYLQMNSLKPEDTAVYYCAARGSPSKHHWYDYWGQGTQVTVSS", "polyreactivity (PSR sort gate)": "low polyreactivity"}
{"sequence": "QVQLVESGGGLVQAGGSLRLSCAASGRIFAHNAMGWYRQPPGKARELVAAITWSGGSTYYADSVKGRFTISRDNAKKTVYLQMNSLNPEDTAVYYCNNDSHGHLYNYWGQGTQVCVSS", "polyreactivity (PSR sort gate)": "low polyreactivity"}
{"sequence": "QVQLVESGGGLVQAGGSLRLSCAASGRIFAINTMGWYRQAPGKERELVAAINNGGSTNYADSVKGRFTISRDNAKNTVYLQMNSLKPEDTAVYYCAAEGLPYVRVFDFVSRYDYWGQGTQVTVSS", "polyreactivity (PSR sort gate)": "low polyreactivity"}
{"sequence": "QVQLVESGGGLVQAGGSLRLSCAASGRIFALNVMGWYRQAPVKERELFAVINRSGNTNYADSVKGRFTSSRDNAKNTVYLQMNSLKPEDTAVYYCAARRVGYGTDRYYGYDSWGQGTQVTVSS", "polyreactivity (PSR sort gate)": "high polyreactivity"}
{"sequence": "QVQLVESGGGLVQAGGSLRLSCAASGRIFANYAMGWYRQAPGKERELVAAIYWSDDDTYYADSVKGRFTISRDNAKNTVYFQMNRLIPEDTAVYYCAADGRYGWYYGVYNGEDYWGQGTQVTVSS", "polyreactivity (PSR sort gate)": "high polyreactivity"}
{"sequence": "QVQLVESGGGLVQAGGSLRLSCAASGRIFAQNAMGWYRQAPGKERELVAAISWGGGGTYYADSVKGRFTISRDNAKNTVYLQMNSLKPEDTAVYYCAADSPGFGAWDRYEYWGQGTQVTVSW", "polyreactivity (PSR sort gate)": "low polyreactivity"}
{"sequence": "QVQLVESGGGLVQAGGSLRLSCAASGRIFARNAMGWYRQAPGKERELVAAISWSGGRTYYADSVKGRFTISRDNAKNTVYLQMNSLKPEDTAVYYCAADHYPWWAWEFDYWGQGTQVTVSS", "polyreactivity (PSR sort gate)": "low polyreactivity"}
{"sequence": "QVQLVESGGGLVQAGGSLRLSCAASGRIFARNAMGWYRQAPGKERELVAAITYSGGSTYYADSVKGRFTISRDNAKNTVYLQMNSLKPEDTAVYYCAAETSNRGRRYYYWGQGTQVTVSS", "polyreactivity (PSR sort gate)": "high polyreactivity"}
{"sequence": "QVQLVESGGGLVQAGGSLRLSCAASGRIFARYAKGWSRQAPGKERELVAAISRGGSTKNADSVKGRFTISRDNAKITVYLQMNSLKPEDTAVYYCATEYYGPVYDLDYDYWGQGTQVTVSS", "polyreactivity (PSR sort gate)": "low polyreactivity"}
{"sequence": "QVQLVESGGGLVQAGGSLRLSCAASGRIFARYAMGWYRQAPGKERELVAAITNVGSTYADSVKGRFTISRDNAKNTVYLQMNSLKPEDTAVYYCAARSKYDQVRATFWLFDYWGQGTQVTVSS", "polyreactivity (PSR sort gate)": "low polyreactivity"}
{"sequence": "QVQLVESGGGLVQAGGSLRLSCAASGRIFARYAMGWYRQAPGKERELVAAITSRGGSTYYADSVKGRFTISRDNAKNTVYLQMNSLKPEDTAVYYCNADYYRRPYYYWGQGTQVTVSS", "polyreactivity (PSR sort gate)": "high polyreactivity"}
{"sequence": "QVQLVESGGGLVQAGGSLRLSCAASGRIFARYAMGWYRQAPGKERELVASINSGGNTYYADSVKGRFTISRDNAKNTVYLQMNSLKPEDTAVYYCAAVVGRRASSRSRFEYDYWGQGTQVTVSS", "polyreactivity (PSR sort gate)": "low polyreactivity"}
{"sequence": "QVQLVESGGGLVQAGGSLRLSCAASGRIFARYVMGWYRQAPGKERELVAAISRRAGNTYYADSVKGRFTISRDNAKNTVYLQMNSLKPEDTAVYYCAVRYSYYALSTSRYGYWGQGTQVTVSS", "polyreactivity (PSR sort gate)": "high polyreactivity"}
{"sequence": "QVQLVESGGGLVQAGGSLRLSCAASGRIFASYAMGWYRQAPGKERELVAAISLSGGSTYYADSVKGRFTISRDNAKNTVYLQMNSLKPEDTAVYYCAAKNYRRYRDYYWGQGTQVTVSS", "polyreactivity (PSR sort gate)": "high polyreactivity"}
{"sequence": "QVQLVESGGGLVQAGGSLRLSCAASGRIFATNAMGLYRPAPGKERELVATITRSAGRTYYADSVKGRFTISRDNAKNTVYLQMNSLKPEDTAVYYCAASYWDTEPGYREYVYWGQGTQVTVSS", "polyreactivity (PSR sort gate)": "low polyreactivity"}
{"sequence": "QVQLVESGGGLVQAGGSLRLSCAASGRIFATNAMGWYRPAPGKERELVATITRSAGRTYYADSVKGRFTISRDNAKNTVYLQMNSLKPEDTAVYYCAASYWDTEPGYREYDYWGQGTQVTVSS", "polyreactivity (PSR sort gate)": "low polyreactivity"}
{"sequence": "QVQLVESGGGLVQAGGSLRLSCAASGRIFAVYAMGWYRQAPGKERELVAAISWSGGRTNYADSVKGRFTISRDNAKKTVYLQMNSLKPEDTAVYYCNARQWRFGFVASGGKYNYWGQGTQVTVSA", "polyreactivity (PSR sort gate)": "high polyreactivity"}
{"sequence": "QVQLVESGGGLVQAGGSLRLSCAASGRIFAWYAMGWYRQAPGKDRELVAAISDSGGSTYYADSVKGRFTISRDNAKNTVYLQMNSLKPEVTAVYYWAADQVVYYAYWSDHYDDWGQGTQVTVSS", "polyreactivity (PSR sort gate)": "low polyreactivity"}
{"sequence": "QVQLVESGGGLVQAGGSLRLSCAASGRIFAWYAMGWYRQAPGKEREFVAAISRGGSTYYADSVKGRFTISRDNAKNTVYLQMNSLKPEDTAVYYCAASSPSSGRFDYWGQGTQVTVSS", "polyreactivity (PSR sort gate)": "high polyreactivity"}
{"sequence": "QVQLVESGGGLVQAGGSLRLSCAASGRIFAYNTMGWYREAPGKERELVAVSTSGGSTNYADSVKGRFTISRDNAKNTVYLQMNSLKPEDSAVYYCAKRPYGRSGGSRYDYWGQGTQVTVSS", "polyreactivity (PSR sort gate)": "high polyreactivity"}
